# Assay results published in US20230242646A1.
# How the values were obtained:
# [1] = target: membrane-bound full-length human CD89 on HEK293F cells (human) (UniProt P24071); assay: FACS HEK293F-huCD89, 10 ug/mL; competitor PE-A59
# [2] = target: membrane-bound full-length human CD89 on HEK293F cells (human) (UniProt P24071); assay: FACS, unlabelled antibody before A3-PE on HEK293F-huCD89
# [3] = target: membrane-bound full-length human CD89 on HEK293F cells (human) (UniProt P24071); assay: FACS, antibody before serum IgA on HEK293F-huCD89; IgA detected
# [4] = target: membrane-bound full-length human CD89 on HEK293F cells (human) (UniProt P24071); assay: FACS, antibody before secretory IgA on HEK293F-huCD89; IgA detected
# [5] = target: membrane-bound full-length human CD89 on HEK293F cells (human) (UniProt P24071); assay: FACS, antibody before non-aggregated serum IgA on HEK293F-huCD89; IgA detected
# [6] = target: membrane-bound full-length human CD89 on HEK293F cells (human) (UniProt P24071); assay: FACS HEK293F-huCD89, 10 ug/mL; competitor PE-MIP8a
# [7] = target: membrane-bound full-length human CD89 on HEK293F cells (human) (UniProt P24071); assay: FACS on HEK293F-huCD89
# [8] = target: membrane-bound full-length human CD89 on HEK293F cells (human) (UniProt P24071); assay: FACS, unlabelled antibody before MIP8a-PE on HEK293F-huCD89
# [9] = target: membrane-bound full-length human CD89 on HEK293F cells (human) (UniProt P24071); assay: FACS HEK293F-huCD89, 10 ug/mL; competitor PE-A3
# [10] = target: membrane-bound full-length human CD89 on HEK293F cells (human) (UniProt P24071); assay: FACS, antibody before heat-aggregated serum IgA on HEK293F-huCD89; IgA detected
# [11] = target: recombinant C-terminal polyhistidine-tagged human (extracellular) CD89 (Sino Biological) (human) (UniProt P24071); assay: ELISA on coated rhuCD89
# [12] = target: recombinant C-terminal polyhistidine-tagged human (extracellular) CD89 (Sino Biological) (human) (UniProt P24071); assay: ELISA, antibody before serum IgA on coated rhuCD89; IgA detected
# [13] = target: membrane human CD89 on ex vivo primary human neutrophilic granulocytes or monocytic U937 cells (human) (UniProt P24071)
# [14] = target: membrane-bound full-length human CD89 on HEK293F cells (human) (UniProt P24071); assay: FACS, antibody before non-aggregated serum IgA on HEK293F-huCD89; IgA detected; remark: listed apart in the source
# [15] = target: membrane-bound full-length human CD89 on HEK293F cells (human) (UniProt P24071); assay: FACS, antibody before heat-aggregated serum IgA on HEK293F-huCD89; IgA detected; remark: listed apart in the source
# [16] = target: membrane-bound full-length human CD89 on HEK293F cells (human) (UniProt P24071); assay: FACS HEK293F-huCD89, titrated Ab; non-aggregated serum IgA
# [17] = target: membrane-bound full-length human CD89 on HEK293F cells (human) (UniProt P24071); assay: FACS HEK293F-huCD89, titrated Ab; heat-aggregated serum IgA
# [18] = target: membrane-bound full-length human CD89 on HEK293F cells (human) (UniProt P24071); assay: FACS HEK293F-huCD89; heat-aggregated serum IgA
# [19] = target: membrane-bound full-length human CD89 on HEK293F cells (human) (UniProt P24071); assay: FACS HEK293F-huCD89, 10 ug/mL; heat-aggregated serum IgA (similar with non-aggregated)
# [20] = target: membrane-bound full-length human CD89 on HEK293F cells (human) (UniProt P24071); assay: FACS, unlabelled antibody before A59-PE on HEK293F-huCD89
# [21] = target: membrane-bound full-length human CD89 on HEK293F cells (human) (UniProt P24071); assay: FACS HEK293F-huCD89; non-aggregated serum IgA
Substance,% blocking of PE-A59 binding [1] [%],IC50 (read off the curve) [2] [µg/mL],IC50 (read off the curve) [5] [µg/mL],% blocking of PE-MIP8a binding [6] [%],% blocking of PE-A3 binding [9] [%],IC50 (read off the curve) [10] [µg/mL],IC50 (read off the curve) [14] [µg/mL],IC50 (read off the curve) [15] [µg/mL],maximum inhibition of IgA binding [16] [%],maximum inhibition of IgA binding [17] [%],maximum inhibition of IgA binding [18] [%],% blocking of IgA binding [19] [%],maximum inhibition of IgA binding [21] [%],also measured
mouse anti-human CD89 antibody clone MIP8a (BioRad),50,0.2,0.7,> 90,55,0.7,0.2,0.2,,,,,,"IC50 (read off the curve) [3]: 0.2 µg/mL; IC50 (read off the curve) [4]: 0.4 µg/mL; EC50 (read off the curve) [7]: 0.2 µg/mL; IC50 (read off the curve) [8]: 0.3 µg/mL; EC50 (read off the curve) [11]: 0.02 µg/mL; IC50 (read off the curve) [12]: 0.07 µg/mL; IC50 (read off the bars), binding of granulocytes to plate-bound serum IgA [Donor 3] [13]: 0.6 µg/mL"
mouse anti-human CD89 antibody clone A59 (BD Biosciences),> 90,,1,< 25,> 90,1,,,60,60,60,60,60,IC50 (read off the curve) [20]: 0.6 µg/mL
mouse anti-human CD89 antibody clone A3 (Santa Cruz Biotechnology),> 90,0.4,0.8,< 25,> 90,0.7,0.4,0.4,60,60,60,60,60,
